Tested on: CXCL9, CXCL10, CXCL11, IL-12B, IL-18, IL-6, IFNγ, TNFα
Assay: Serum cytokines, Meso Scale Discovery multiplex assays, baseline and C2D1
Format: in vivo, human
Method: Soluble biomarkers were retrospectively analyzed in baseline and on-treatment peripheral blood derived samples obtained from a subset of subjects enrolled in the clinical trial of Example 2. Baseline samples were obtained on day 1 of cycle 1 (CID1), prior to administration of any study drugs. On-treatment samples were obtained on day 1 of cycle 2 (C2D1), prior to administration of study drugs on that day.
Blood collected in serum separator tubes was allowed to clot for 30-60 minutes before centrifugation at 1300 g for 10 minutes to separate the serum. Serum was isolated and stored at −80° C. until cytokine analysis. Serum cytokines were quantified in multiplex assays using the Meso Scale Discovery platform following the manufacturer's protocol. Briefly, plates were coated with biotinylated capture antibodies specific to the analyte of interest bound to linkers specific to unique spots in each well of a 96-well plate. Serum samples, assessed in duplicate, were diluted 8-fold to quantify CXCL9, CXCL10, CXCL11 and IL-18 in a U-plex assay, diluted 10-fold to quantify IL-12B in a U-plex assay, and diluted 5-fold to quantify IFNγ, TNFα and IL-6 in the S-plex assay. Samples were incubated on linker/capture antibody-coated plates, followed by detection with a sulfo-tag-labelled antibody for the U-plex assays and a TURBO-tag-labelled antibody for the S-plex assay. For the S-plex assay, additional steps incorporated in the manufacturer's protocol to amplify signal with enhance solution and detection solution were followed. Following addition of read buffer, the electrochemiluminescent signal was measured on a MESO Sector S 600 instrument. Between each step of the protocol plates were washed with 0.05% Tween-PBS. A standard curve was generated for each plate using a 4-parameter logistic fit with 1/y^2 weighting. Cytokine concentrations in samples were interpolated using the standard curve, allowing quantification of the analyte of interest. Fold change from baseline was calculated as a ratio of the cytokine concentration at C2D1 over the cytokine concentration at baseline. A linear mixed model performed on log transformed raw cytokine values with baseline values as covariates assessed the difference in cytokine levels over time and between treatment groups.

B1: zimberelimab (antibody, chains of the INN, looked up, V domains shown)
VH: QLQLQESGPGLVKPSETLTLTCTVSADSISSTTYYWVWIRQPPGKGLEWIGSISYSGSTYYNPSLKSRVTVSVDTSKNQFSLKLNSVAATDTALYYCARHLGYNGRYLPFDYWGQGTLVTVSS
VL: QSALTQPASVSGSPGQSITISCTGTSSDVGFYNYVSWYQQHPGKAPELMIYDVSNRPSGVSDRFSGSKSGNTASLTISGLQAEDEADYYCSSYTSISTWVFGGGTKLTVL
notes: zimberelimab monotherapy 360 mg IV Q3W; anti-PD-1 antibody
C2D1 over baseline
  CXCL9, Fold change, median: 2.4
  CXCL10, Fold change, median: 1.7
  CXCL11, Fold change, median: 1.6
  IFNγ, Fold change, median: 1.6
  IL-6, Fold change, median: 1.0
  IL-12B, Fold change, median: 1.5
  IL-18, Fold change, median: 1.2
  TNFα, Fold change, median: 1.2
Day 1 of cycle 2, pre-dose
  CXCL9, C2D1, median: 621 pg/mL
  CXCL10, C2D1, median: 639 pg/mL
  CXCL11, C2D1, median: 172 pg/mL
  IFNγ, C2D1, median: 1100 fg/mL
  IL-6, C2D1, median: 14385 fg/mL
  IL-12B, C2D1, median: 284 pg/mL
  IL-18, C2D1, median: 779 pg/mL
  TNFα, C2D1, median: 1336 fg/mL
